Test results published in the supplement of paper PMC9112550, “Optimization of the antimicrobial peptide Bac7 by deep mutational scanning” (BMC Biology, 2022).

System: Escherichia coli TOP10
Experiment: shrunken log2 fold change of peptide-encoding DNA abundance (4.5 h post-induction vs induction); higher = less antimicrobial activity (less host growth inhibition)
Settings: time post-induction: 4.5 h; library: site-saturation at positions 5, 18, 19, 20
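Note: peptides expressed intracellularly from a pBAD plasmid library in pooled LB shake-flask culture, induced with 0.3% L-arabinose, DNA abundance read by NGS, three biological replicates, DESeq2 with apeglm shrinkage.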

| Sequence | shrunken log2 fold change |
| --- | --- |
| RRIRRRPPRLPRPRPRPEGRPRP | 0.89 |
| RRIRMRPPRLPRPRPRPATIPRP | 0.23 |
| RRIRMRPPRLPRPRPRPCDIPRP | -0.151 |
| RRIRLRPPRLPRPRPRPRPQPRP | 0.398 |
| RRIRCRPPRLPRPRPRPQQTPRP | -0.00158 |
| RRIRHRPPRLPRPRPRPYRWPRP | -0.00879 |
| RRIRLRPPRLPRPRPRPDEEPRP | 0.138 |
| RRIRSRPPRLPRPRPRPAPPPRP | 0.458 |
| RRIRRRPPRLPRPRPRPRMKPRP | 0.309 |
| RRIRQRPPRLPRPRPRPTHVPRP | -0.0938 |
| RRIRQRPPRLPRPRPRPPTTPRP | -0.0101 |
| RRIRARPPRLPRPRPRPYHVPRP | -0.963 |
| RRIRHRPPRLPRPRPRPGGEPRP | 0.183 |
| RRIRRRPPRLPRPRPRPSSMPRP | -0.143 |
| RRIRKRPPRLPRPRPRPIMTPRP | -0.111 |
| RRIRCRPPRLPRPRPRPHLAPRP | -0.0147 |
| RRIRDRPPRLPRPRPRPENHPRP | -0.0926 |
| RRIRDRPPRLPRPRPRPERGPRP | 0.689 |
| RRIRSRPPRLPRPRPRPDCFPRP | 0.103 |
| RRIRDRPPRLPRPRPRPYFTPRP | -0.573 |
| RRIRHRPPRLPRPRPRPKVIPRP | 0.109 |
| RRIRKRPPRLPRPRPRPKANPRP | 0.768 |
| RRIRLRPPRLPRPRPRPDRHPRP | -0.279 |

| Sequence | shrunken log2 fold change |
| --- | --- |
| RRIRLRPPRLPRPRPRPHQGPRP | -0.0634 |
| RRIRARPPRLPRPRPRPEICPRP | 1.01 |
| RRIRIRPPRLPRPRPRPGCTPRP | -0.268 |
| RRIRTRPPRLPRPRPRPTPLPRP | 0.147 |
| RRIRIRPPRLPRPRPRPTAYPRP | -0.425 |
| RRIRARPPRLPRPRPRPCNNPRP | -0.352 |
| RRIRVRPPRLPRPRPRPWKAPRP | 0.0634 |
| RRIRSRPPRLPRPRPRPVEIPRP | -0.0626 |
| RRIRYRPPRLPRPRPRPMAFPRP | -0.557 |
| RRIRTRPPRLPRPRPRPWGYPRP | -0.0354 |
| RRIRSRPPRLPRPRPRPRDVPRP | -0.0918 |
| RRIRGRPPRLPRPRPRPIRKPRP | 0.124 |
| RRIRTRPPRLPRPRPRPDSRPRP | -0.00822 |
| RRIRIRPPRLPRPRPRPRYYPRP | -0.372 |
| RRIRHRPPRLPRPRPRPFYEPRP | -0.108 |
| RRIRGRPPRLPRPRPRPNLRPRP | 0.283 |
| RRIRQRPPRLPRPRPRPSPVPRP | 0.0734 |
| RRIRHRPPRLPRPRPRPHFTPRP | -0.67 |
| RRIRWRPPRLPRPRPRPLFIPRP | -0.353 |
| RRIRDRPPRLPRPRPRPAYHPRP | -0.263 |
| RRIRLRPPRLPRPRPRPKRGPRP | 0.483 |
| RRIRHRPPRLPRPRPRPWFCPRP | -0.583 |
| RRIRPRPPRLPRPRPRPRRCPRP | 0.388 |

| Sequence | shrunken log2 fold change |
| --- | --- |
| RRIRLRPPRLPRPRPRPPAYPRP | 0.0545 |
| RRIRCRPPRLPRPRPRPMWWPRP | 0.396 |
| RRIRHRPPRLPRPRPRPYDGPRP | -0.00992 |
| RRIRCRPPRLPRPRPRPTFMPRP | -0.513 |
| RRIRERPPRLPRPRPRPGEKPRP | -0.00142 |
| RRIRMRPPRLPRPRPRPPTTPRP | 0.991 |
| RRIRSRPPRLPRPRPRPGFAPRP | 0.502 |
| RRIRIRPPRLPRPRPRPASWPRP | 0.0913 |
| RRIRHRPPRLPRPRPRPTQIPRP | 0.51 |
| RRIRQRPPRLPRPRPRPHGYPRP | -0.138 |
| RRIRLRPPRLPRPRPRPPNGPRP | -0.0536 |
| RRIRYRPPRLPRPRPRPTDEPRP | -0.00133 |
| RRIRQRPPRLPRPRPRPSLWPRP | 0.337 |
| RRIRERPPRLPRPRPRPQSLPRP | -0.0684 |
| RRIRGRPPRLPRPRPRPSSYPRP | -0.128 |
| RRIRCRPPRLPRPRPRPYIDPRP | -1.39 |
| RRIRVRPPRLPRPRPRPYICPRP | -0.468 |
| RRIRDRPPRLPRPRPRPQRKPRP | 0.0137 |
| RRIRCRPPRLPRPRPRPNRVPRP | -0.206 |
| RRIRWRPPRLPRPRPRPYTTPRP | -0.537 |
| RRIRRRPPRLPRPRPRPSIVPRP | 0.26 |
| RRIRLRPPRLPRPRPRPMQEPRP | 0.244 |
| RRIRARPPRLPRPRPRPESAPRP | 0.858 |

| Sequence | shrunken log2 fold change |
| --- | --- |
| RRIRKRPPRLPRPRPRPYIPPRP | -0.651 |
| RRIRSRPPRLPRPRPRPTYAPRP | 0.0244 |
| RRIRWRPPRLPRPRPRPNLYPRP | -0.169 |
| RRIRTRPPRLPRPRPRPVFFPRP | 0.0831 |
| RRIRWRPPRLPRPRPRPCWKPRP | -0.00256 |
| RRIRARPPRLPRPRPRPPCPPRP | 0.489 |
| RRIRHRPPRLPRPRPRPSVDPRP | 0.0776 |
| RRIRKRPPRLPRPRPRPVGHPRP | 0.224 |
| RRIRMRPPRLPRPRPRPRPCPRP | 0.586 |
| RRIRTRPPRLPRPRPRPPMWPRP | 0.0903 |
| RRIRERPPRLPRPRPRPPCWPRP | 0.0636 |
| RRIRWRPPRLPRPRPRPMCVPRP | 0.0501 |
| RRIRYRPPRLPRPRPRPQVGPRP | -0.0385 |
| RRIRPRPPRLPRPRPRPVKIPRP | 0.154 |
| RRIRIRPPRLPRPRPRPRCFPRP | -0.141 |
| RRIRLRPPRLPRPRPRPHFNPRP | -0.386 |
| RRIRVRPPRLPRPRPRPMVYPRP | -0.17 |
| RRIRYRPPRLPRPRPRPNGTPRP | -0.424 |
| RRIRTRPPRLPRPRPRPFKYPRP | -0.114 |
| RRIRFRPPRLPRPRPRPIMFPRP | -0.0164 |
| RRIRKRPPRLPRPRPRPVRFPRP | 0.397 |
| RRIRWRPPRLPRPRPRPHVSPRP | -0.0109 |
